Here are results for ten proteins from article PMC5717138.

The nature of data set [1]: GFP-Polη foci, U2OS, 24 h post-UVC. As to conditions: glycan lost; control: wild type.
Data set [2] is described as follows: GFP-Polη foci, U2OS, 34 and 46 h after cisplatin removal. As to conditions: glycan lost; control: wild type.
A short description of data set [3]: RPA2 foci-positive cells, 24 h recovery after cisplatin. As to conditions: glycan lost; control: wild type.
Data set [4] in a line: GFP-Polη foci, U2OS, 8 h post-UVC. As to conditions: glycan lost; control: wild type.
The nature of data set [5]: unreplicated CPDs in ssDNA, complemented XP30RO, 4 h post-UV. As to conditions: glycan lost; control: wild type.
A short description of data set [6]: chromatin-fraction IP, anti-ubiquitin/K48 blot. As to conditions: glycan lost; control: wild type.
Data set [7] can be described thus: supF shuttle vector assay, complemented XP30RO. As to conditions: glycan lost; control: wild type.
Data set [8] can be described thus: DNA fiber assay, no cisplatin. As to conditions: glycan lost; control: wild type.
Data set [9] in a line: GFP-Polη foci, U2OS, 24 h after cisplatin. As to conditions: glycan lost; control: wild type.
A short description of data set [10]: DNA fiber assay after cisplatin. As to conditions: glycan lost; control: wild type.
Data set [11] can be described thus: quantitative MS of di-Gly peptides. As to conditions: glycan lost; control: wild type.
The nature of data set [12]: denaturing Flag IP, anti-HA-Ub and anti-K48-Ub blot. As to conditions: glycan lost; control: wild type.
Data set [13] in a line: chromatin fractionation, chromatin-bound Polη 24 h post-UV. As to conditions: glycan lost; control: wild type.
The nature of data set [14]: RPA foci, complemented XP30RO, 4 and 24 h post-UV. As to conditions: glycan lost; control: wild type.
Data set [15] in a line: in vitro ubiquitination of E. coli-purified His-Polη. As to conditions: control: WT His-Polη without OGT co-expression.

B1: DNA polymerase η (Polη): T457A (protein)
parent chain: MATGQDRVVALVDMDCFFVQVEQRQNPHLRNKPCAVVQYKSWKGGGIIAVSYEARAFGVTRSMWADDAKKLCPDLLLAQVRESRGKANLTKYREASVEVMEIMSRFAVIERASIDEAYVDLTSAVQERLQKLQGQPISADLLPSTYIEGLPQGPTTAEETVQKEGMRKQGLFQWLDSLQIDNLTSPDLQLTVGAVIVEEMRAAIERETGFQCSAGISHNKVLAKLACGLNKPNRQTLVSHGSVPQLFSQMPIRKIRSLGGKLGASVIEILGIEYMGELTQFTESQLQSHFGEKNGSWLYAMCRGIEHDPVKPRQLPKTIGCSKNFPGKTALATREQVQWWLLQLAQELEERLTKDRNDNDRVATQLVVSIRVQGDKRLSSLRRCCALTRYDAHKMSHDAFTVIKNCNTSGIQTEWSPPLTMLFLCATKFSASAPSSSTDITSFLSSDPSSLPKVPVTSSEAKTQGSGPAVTATKKATTSLESFFQKAAERQKVKEASLSSLTAPTQAPMSNSPSKPSLPFQTSQSTGTEPFFKQKSLLLKQKQLNNSSVSSPQQNPWSNCKALPNSLPTEYPGCVPVCEGVSKLEESSKATPAEMDLAHNSQSMHASSASKSVLEVTQKATPNPSLLAAEDQVPCEKCGSLVPVWDMPEHMDYHFALELQKSFLQPHSSNPQVVSAVSHQGKRNPKSPLACTNKRPRPEGMQTLESFFKPLTH
B1: the localisation_or_trafficking entry in [1] is given as “increases”; in data set [2] it was “increases”; in [4], “no change”; in data set [9] it was “no change”; in data set [13] it was “increases”. Moreover, in [3], the “other: translesion synthesis after cisplatin, other: % cells with >10 RPA2 foci” value is recorded as “increases, 33.4 vs 12.6”. For the same protein, the “other: CPD lesion bypass” value in data set [5] and in data set [14] was “no change” in each case. Besides, the “other: polyubiquitination” value in data set [6] and in [12] was “decreases” in each case. Further, the “other: UV-induced mutation frequency” value in [7] is “increases”. Moreover, the “other: replication fork progression, other: median fiber length” value is “no change, 12.07 vs 12.17” in data set [8] and “decreases, 8.62 vs 10.65” in data set [10]. Besides, the “other: site-specific ubiquitination” value in data set [11] was “decreases”.

B2: DNA polymerase η (Polη): 3A (protein)
parent chain: B1 parent chain
For B2, the “other: polyubiquitination” value in data set [12] was “decreases”.

B3: DNA polymerase η (Polη): Polη-3A (protein)
parent chain: B1 parent chain
Take B3: the values for the localisation_or_trafficking result in [1] and in data set [4] were “increases” and “no change”, respectively.

B4: DNA polymerase η (Polη): Polη-5A (protein)
parent chain: B1 parent chain
Turning to B4, the localisation_or_trafficking entry in data set [1] is reported as “increases”; in data set [4], “no change”.

B5: DNA polymerase η (Polη): GST-OGT co-expression (WT) (protein)
parent chain: B1 parent chain
Turning to B5, in data set [15] (glycan gained), the “other: polyubiquitination” value is “increases”.

B6: DNA polymerase η (Polη): 5A (protein)
parent chain: B1 parent chain
For B6, in data set [12], the “other: polyubiquitination” value is “decreases”.

B7: DNA polymerase η (Polη): T457A without OGT (protein)
parent chain: B1 parent chain
As for B7, the “other: polyubiquitination” value in data set [15] (glycan lost) was “no change”.

B8: DNA polymerase η (Polη): T457D (protein)
parent chain: B1 parent chain
B8: in data set [1], the localisation_or_trafficking entry is listed as “increases”.

B9: DNA polymerase η (Polη): T457A with GST-OGT co-expression (protein)
parent chain: B1 parent chain
As to B9, the “other: polyubiquitination” value in [15] (glycan lost) was “no change”.

B10: DNA polymerase η (Polη): T457E (protein)
parent chain: B1 parent chain
As to B10, the localisation_or_trafficking entry in data set [1] was “increases”.
